The nature of this series: soluble on expression in E. coli; label from the status in PepcDB or PDB records.
On to “MYFPSGSDPFAVGEDLGVWAPADHQRIIAKLTTGLGVLFYHTKAIHLEPLPETMLDDAKASLVPDLSLVDNESSETPIIIEVCKTAGLKGDLRKVIQLIDDGIYGIREGFVYNYKTQQWLRYRFGDGGLTTESSFSEILNLDLNTFL”, for which the “soluble on expression in E. coli” value is on record as “not soluble”.

For “MGSDKIHHHHHHMTPAQLKDELIAYSKTIGIDKIGFASADPFLTLKERLQTQQALGYQSGFEEPDIDKRVYPEKILPKARSIISIALAYPSKMKNPPKSKKGERRGVFCRASWGKDYHDILRDRLKKLEDFLLERVPDMKVLSMVDTGALSDRAVAERAGIGWSGKNCGVITPEFGSYVYLGDLVTTIPFPPDIPLTDQCGTCNKCVDACPTGALIQGGQLDSQKCIAFLTQTKGFLPEKYRKKLGNRLYGCDTCQQVCPANKGKNFHFHEEMEPDPEIAKPKLIPLLTMSNREFKEKFGHVSGSWRGKKPIQRNAILALAHFKEEAALPILADLLRQDPRPVIRGTAGWALGKIGGPEVETWLKDALKREKDEDVRAEISRGLEILAYGDSGNGKETEDSIR”, the “soluble on expression in E. coli” value is “not soluble”.

With “IFIGNLDPEIDEKLLYDTFSAFGVILQTPKIMRDPDTGNSKGYAFINFASFDASDAAIEAMNGQYLCNRPITVSYAFKKDSKG”, the “soluble on expression in E. coli” value is given as “soluble”.

With “MGSDKIHHHHHHMISMDEFIEFVRGGPLGPIKKWGTKWSLWPVHLVTACCGAELAHAFACGYDGERIGALNYGIARQTNLIIVEGAITRKMAKVLRITWEQMPDPKFVIVMGACGLQGGIFWNGYHMVKPSDVVPVDFFIPGCPPTPEALLRGIRQLQFKIETGEAKTSATFPEVPLEAGRKPRVLPKSPKKISKAPAVIVNAPKEVDWEFGQKLVEEIKAKVEAKSVTITGKNRIAVKVESDYIPRAAMRLREMGFDHVKNVNVIDVPNEDKFIVEYHFSSYSVKELMPVIVNVFADIPRENPRVKSLASMFPSADYMEREMHDFFGVIFEGNPWMGRKFLLAPDAPEFPLRKDFKLEEEVYVR”, the “soluble on expression in E. coli” value is reported as “not soluble”.

“MKGRDVVLGLLMQKELSGYDIKIVFEDVFTHFFDGSFGMIYPTLRQLENEGKIKKEVVMQEGKPNKKMYFITDEGREEFYQYMQTPVEKDVLRSDFLMRMYFGNYSDDVTIKKWIKDEIERKEAYIADLRLKYEKWRVGITFVEEISLDVGIASYSAQVETLKKKLEELEAKENNKTEE”: the “soluble on expression in E. coli” value was “soluble”.

Consider “MKLYYSPGACSLSPHIALREAGLNFELVQVDLASKKTASGQDYLEVNPAGYVPCLQLDDGRTLTEGPAIVQYVADQVPGKQLAPANGSFERYHLQQWLNFISSELHKSFSPLFNPASSDEWKNAVRQSLNTRLGQVARQLEHAPYLLGDQLSVADIYLFVVLGWSAYVNIDLSPWPSLQAFQGRVGGREAVQSALRAEGLIKE”, for which the “soluble on expression in E. coli” value was “soluble”.

Take “MGRKEMLQNGVQQVFYEEEWYPPISEAVKNLTVEQACWQPEGAASNTIWENVNHLLIFKERLLSRLHEDDTFVAPQNNDETFIQGGPNDDAAWQQTVKRTLQVHDALQSSLTALQEAELDQLSPSLPVWQQYMNILLHDAYHTGQIIQLRKLQGSWPTHRSYL”: the “soluble on expression in E. coli” value is recorded as “not soluble”.

As to “MKKALFLVGLVFTAGVISSCGGVSSQRTYEGAAVGAAVGAAAGVLLDKENRWRGGVIGAALGAILGGTITEIAQRAAKEAAQNNKPVVYRAEDGSQMVRAEPVEKRGNCTLVKTKYYQNGKLVKVEEKEVCE”, the “soluble on expression in E. coli” value was “not soluble”.

As to “MKTGKELKPGTVIRLENDPWLVQKAEFTKSGRNSAIMKTKLKNLLTGYKTEIVYSADDKLDDVILDRKEATLSFISGDTYTFMDTTDYTMYELNAEDIESVLPFVEEGMTDVCEAVFFDERLVSVELPTTIVRQVDYTEGSARGDTSGKVMKPAKLKNGTELSVADFIEIGDMIEIDTREGGSYKGRAKLEHHHHHH”, the “soluble on expression in E. coli” value is listed as “not soluble”.

“MELKSTRHTKYLCNYHFVWIPKHRRNTLVNEIAEYTKEVLKSIAEELGCEIIALEVMPDHIHLFVNCPPRYAPSYLANYFKGKSARLILKKFPQLNKGKLWTRSYFVATAGNVSSEVIKKYIEEQWRKEGEEE”: the “soluble on expression in E. coli” value was “soluble”.

With “MGSDKIHHHHHHMTQFDVLTIGNAIVDIISRCEDQFLEENGIVKGAMNLIDAERATRLYSLMGPAIEASGGSAGNTAAGIASFGGKAAYFGKVAEDELGEIFAHDIRAQGVHYQTMAKGQHPPTARCMIFVTEDGERSMNTYLGACVEFGPEDVEPEVVKQAKVTYFEGYLWDPPRAKQAIVDCARIAHEHGREMSMTLSDSFCVHRYRAEFLDLMRSGTVDIVFANRQEALALYETEDFDAALDQIAKDCKLAAVTMSEEGAMIIRGSERIHVPATTIAELVDTTGAGDLFASGFLYGYTQGRTLEECGKLGCLAAGLVIQQMGPRPLASLQEAAAEAGLI”, the “soluble on expression in E. coli” value is given as “not soluble”.

Take “MGSDKIHHHHHHMGASAISQQISKLEQELSIRLLQRNAFGVTPTPAGLAFLKHSQLILRQVNFAIDAAHSARLSGHVSLGFPPTITALIGIPLMKLMSERYPDIRLEIVETLSGNLIQSINSRQLDIAIIFTNEIDKQWSIQPLVREQMYLMARKEVLEKYGLSECIKSGIIQSQQIGDIPLVLPRQRHSLRKLLEHKIGQLNVVYEIDGLHLLMDSLIHLDLASVRPGSACLQEYKHKLQLLKVVDPEVERINYLVSLAEEELSPAALAAKSAIKACVKELIQNQIWPCSEIIL”: the “soluble on expression in E. coli” value is “not soluble”.

Take “MPEITLNCQKLPCPQPVLRCKALLDTEAPARCTVTVDNAPASENVARFLTSRGYDTSVHADPEGLWNIIAVRKDSAVAPSCDCEVMDARGIAAIAGTAEMPQKVTVFITSETLGSGDDVLGGKLMANFLATLPELGDELWRIVCVNGGVRLATREHPAVTHLNKLEAMGVDILVCGTCLDHFGLLSEKAVGQTTNMLDVVTSLQLATKVIRPLEHHHHHH”: the “soluble on expression in E. coli” value was “soluble”.

For “MSLKLTPEAAGTFAIAPTPFHDDGKIDDVSIDRLTDFYAEVGCEGVTVLGILGEAPKLDAAEAEAVATRFIKRAKSMQVIVGVSAPGFAAMRRLARLSMDAGAAGVMIAPPPSLRTDEQITTYFRQATEAIGDDVPWVLQDYPLTLSVVMTPKVIRQIVMDSASCVMLKHEDWPGLEKITTLRGFQKDGSLRPLSILCGNGGLFLDFEMERGADGAMTGYCFPDMLVDVVKLSKAGQRDLAHNLFDAHLPLIRYEHQQGVGLSVRKYVLKKRGLLSSSAQRKPGASLTDTAREEVDYLLSRLARVDKRADFEPRTKAAEEGHHHHHH”, the “soluble on expression in E. coli” value is listed as “soluble”.

On to “MFIGGAIISFLFLFGYMWKEAHSNRIRHVTLSFPHFPDNGPPLTIFFISDIHRRSVSCRMLETVKGKADLVVIGGDLAEKGVPAARVRENVRRLQTVAPVYFVWGNNDDEVDYDLQSLLEEERVYVLKNKAEVWEHGGVPIALIGVGDVSRKEADIARALEHVPPESFRILACHNPAIIARLEDEQHISLVLSGHTHGGQIRLFSFGLYEKGGLKWHGNTALFTSNGYGTTGVPLRLGAPAETHLIKIVPGKLATEKKCLSKTGKTMLEHHHHHH”, for which the “soluble on expression in E. coli” value is on record as “not soluble”.

For “TKDFTWTTDFNIAFNNNKITSYPQKEEVVGTKIRTVGYSIYEFYMQEWAGVDPVNGDPLWYMDVTDDKGNPTGERTTTNTYSKATKYKLGSALPSATGGLTNTVSWKGVDFSFMFTYGFGGKIYDVYEENLLNDGNKTGYQLITEQADSWTPENTNASNPKFIPNNSNTSNGRSSRYLHNADFIKLKNISLGYSLPKSLIKKNLLQNVRIYVSADNLITWNLDKKFKSYDVELGGVDGLLDGGGTVPLARTFTAGINLTF”, the “soluble on expression in E. coli” value is recorded as “not soluble”.

For the sequence “MQLEIKGKTHNVKFGTRFVAEMDKNHIAERQGFKFGAGLQSSVPFLIDHSVVTLAEVIYTGTITEPPRPSLNDIYDYIDEVEDIEKLFDDVLDELRQSNASKLFMAQVEKDLAEAKA”, the “soluble on expression in E. coli” value is “not soluble”.

For the sequence “VYRTPRTCSPHFPAGPARVINPGLHELHASAGDERDAPIGINFRSPRMRMAGEFVPDSGACDAAHGGSAAPTRKAGMRIGGAAAGKVE”, the “soluble on expression in E. coli” value is recorded as “not soluble”.

These data come from the DeepSol protein solubility set.
